From publication PMC10716038, “Talin and kindlin use integrin tail allostery and direct binding to activate integrins” (Nature Structural & Molecular Biology, 2023)
Where a chain is given by its changes, count along the chain named. Each block holds one binder with its values, some of them ahead of it. No end group written: not given here.

How the values were obtained:
[1] = target: T1, talin-2 head domain (THD2) (UniProt Q71LX4 1-408); assay: MST
T1 chain: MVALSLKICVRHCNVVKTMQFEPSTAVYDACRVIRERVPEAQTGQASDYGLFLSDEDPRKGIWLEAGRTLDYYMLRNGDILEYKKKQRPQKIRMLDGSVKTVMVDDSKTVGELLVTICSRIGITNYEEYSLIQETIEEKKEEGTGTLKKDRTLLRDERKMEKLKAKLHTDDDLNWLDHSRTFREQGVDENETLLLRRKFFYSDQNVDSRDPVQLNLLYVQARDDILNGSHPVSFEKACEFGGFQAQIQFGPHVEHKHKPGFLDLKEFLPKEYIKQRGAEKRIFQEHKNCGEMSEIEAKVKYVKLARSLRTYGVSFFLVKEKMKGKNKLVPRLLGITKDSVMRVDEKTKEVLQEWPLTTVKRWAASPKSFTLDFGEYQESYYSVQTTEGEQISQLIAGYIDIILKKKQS

kindlin-2 (KIND2) [2] = target: T2, kindlin-2 (KIND2) (UniProt Q8CIB5 1-680); assay: MST
T2 chain: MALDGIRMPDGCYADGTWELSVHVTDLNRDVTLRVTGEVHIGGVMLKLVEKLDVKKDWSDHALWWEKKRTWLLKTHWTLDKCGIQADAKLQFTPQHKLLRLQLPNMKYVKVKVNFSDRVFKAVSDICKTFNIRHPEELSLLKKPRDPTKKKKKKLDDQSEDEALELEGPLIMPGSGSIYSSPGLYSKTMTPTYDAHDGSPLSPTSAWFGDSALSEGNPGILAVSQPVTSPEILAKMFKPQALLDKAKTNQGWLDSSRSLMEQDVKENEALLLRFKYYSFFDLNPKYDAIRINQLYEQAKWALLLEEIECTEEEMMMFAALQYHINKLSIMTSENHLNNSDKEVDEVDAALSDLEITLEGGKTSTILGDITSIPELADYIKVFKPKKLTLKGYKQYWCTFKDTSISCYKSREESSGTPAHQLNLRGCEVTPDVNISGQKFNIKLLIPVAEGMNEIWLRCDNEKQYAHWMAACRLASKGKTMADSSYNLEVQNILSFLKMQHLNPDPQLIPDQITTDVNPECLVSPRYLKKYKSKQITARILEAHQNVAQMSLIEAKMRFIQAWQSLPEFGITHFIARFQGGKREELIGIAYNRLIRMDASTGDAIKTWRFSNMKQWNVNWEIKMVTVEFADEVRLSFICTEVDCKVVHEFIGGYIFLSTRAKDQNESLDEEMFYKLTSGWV

[3] = target: T3, talin-1 head domain (THD1) (UniProt P26039 1-405); assay: MST
T3 chain: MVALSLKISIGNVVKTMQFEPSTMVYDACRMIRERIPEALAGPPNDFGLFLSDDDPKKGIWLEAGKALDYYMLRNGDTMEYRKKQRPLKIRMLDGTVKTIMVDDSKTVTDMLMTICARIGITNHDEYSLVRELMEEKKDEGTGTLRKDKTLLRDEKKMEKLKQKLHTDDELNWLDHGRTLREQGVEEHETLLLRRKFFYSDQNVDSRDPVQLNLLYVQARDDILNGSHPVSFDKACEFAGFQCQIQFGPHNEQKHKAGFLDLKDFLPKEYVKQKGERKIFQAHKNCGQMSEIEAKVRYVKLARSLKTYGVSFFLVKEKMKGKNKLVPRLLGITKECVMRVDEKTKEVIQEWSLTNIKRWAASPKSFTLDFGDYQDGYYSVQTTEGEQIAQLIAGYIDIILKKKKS

[4] = target: T4, TLN1-F3–ΔKIND2^Y13A fusion protein; assay: MST; TLN1-F3 contribution
T4 chain: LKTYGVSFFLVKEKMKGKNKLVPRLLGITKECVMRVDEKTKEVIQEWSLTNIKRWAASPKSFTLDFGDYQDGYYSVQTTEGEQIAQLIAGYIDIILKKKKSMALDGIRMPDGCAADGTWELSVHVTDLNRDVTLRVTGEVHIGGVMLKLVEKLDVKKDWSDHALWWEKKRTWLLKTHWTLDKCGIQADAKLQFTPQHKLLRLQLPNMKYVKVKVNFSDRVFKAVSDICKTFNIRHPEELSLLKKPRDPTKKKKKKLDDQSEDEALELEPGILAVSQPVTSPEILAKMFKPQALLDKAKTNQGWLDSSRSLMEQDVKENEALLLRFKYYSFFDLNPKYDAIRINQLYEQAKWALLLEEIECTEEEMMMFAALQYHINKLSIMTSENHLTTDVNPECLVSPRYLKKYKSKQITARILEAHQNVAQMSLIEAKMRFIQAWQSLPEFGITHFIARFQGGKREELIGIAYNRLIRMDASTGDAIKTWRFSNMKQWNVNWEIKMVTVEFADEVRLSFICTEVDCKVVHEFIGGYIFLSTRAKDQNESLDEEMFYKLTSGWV

[5] = target: T5, TLN1-F3–ΔKIND2 fusion protein; assay: MST; TLN1-F3 contribution
T5 chain: T4 chain with A114Y

kindlin-2 (KIND2) [6] = target: T2, kindlin-2 (KIND2); assay: MST; apparent, with THD1
[7] = target: T3, talin-1 head domain (THD1); assay: MST; apparent, with KIND2
kindlin-2 (KIND2) [8] = target: T2, kindlin-2 (KIND2); assay: MST
kindlin-2 (KIND2) [9] = target: T6, kindlin-2 (KIND2) (UniProt Q8CIB5 1-680); assay: NMR titration; 15N-labelled TLN1-F3 observed in the presence of β1-CT at saturating concentration (200 µM) with 75 µM KIND2 added; 298 K; settings: both partners purified
T6 construct: kindlin-2 (KIND2) without the deletions of ΔKIND2; In FC-RDA a copy labelled with Alexa 647 (647–KIND2) was the reporter; also called 647–KIND2; source: E. coli Rosetta, purified (IMAC, SEC); not shown: His10, N-terminal, cleaved; SUMO, N-terminal, cleaved
T6 sequence (looked up): T2 chain

Kd [1]: 25 µM | Kd (kindlin-2 (KIND2) [2]): 2.9 µM | Kd [3]: 140 µM | Kd [4]: 15.7 µM | Kd [5]: 25.3 µM | Kd (kindlin-2 (KIND2) [6]): 42 µM | Kd [7]: 153 µM | Kd (kindlin-2 (KIND2) [8]): 3 µM
B1: ATTO 488-labelled β1-CT (488–β1-CT) (peptide)
peptide: {ATTO 488}-KLLMIIHDRREFAKFEKEKMNAKWDTGENPIYKSAVTTVVNPKYEGK

binding result (kindlin-2 (KIND2) [9]): binds
B2: F3 domain of TLN1 (TLN1-F3) (domain or fragment, UniProt P26039 305-405, looked up)
chain: LKTYGVSFFLVKEKMKGKNKLVPRLLGITKECVMRVDEKTKEVIQEWSLTNIKRWAASPKSFTLDFGDYQDGYYSVQTTEGEQIAQLIAGYIDIILKKKKS
notes: Used unlabelled, 15N-labelled or partially deuterated in NMR; also called T1-F3; source: E. coli (DE3) Rosetta 2, purified (IMAC, SEC); not shown: His10, N-terminal, cleaved; SUMO, N-terminal, cleaved
